Data as given in the DeepSol protein solubility set.

Assay: soluble on expression in E. coli; label from the status in PepcDB or PDB records

Row | Sequence | soluble on expression in E. coli
1 | MAHHHHHHMRKAVRALQRRASQQAREVAVAANDMDGETATTQRPSFSLFWVQLTQAKVDVVLPPAQPPTPSAEVEAEEESETAERAAHAGHGGSRDTASAHTAAQFRRVHDTNRRVLRIIEACPDETLIVVLAGRCDGEAGGNHFSRAQGTCFAFVKDSSAPGPRPEELTKLTDENNVSALPRASAGGAAVDNIPLQDASALSTAAVPHSVDRETAMVEHTPLACQQQ | soluble
2 | FSDILEDRIERLNACFAKAIARYNYPGVYRGVFPVKCNQERHLIEDLVKFGKPHQFGLEAGSKPELMIALAVLDTPGALLVCNGYKDREYIETAMLAQRLGQTPIIVLEQIEEVDLVIDANRQLGIKPILGVRAKLSTQGMGRWGASSGDRAKFGLTMPEVIEAVDKLREANLLDSLQLMHFHIGSQISAINVIKDAIQEASRIYVELAMLGADMKYLDVGGGLGVDYDGSQTNFYASKNYNMQNYANDIVAELKDTCAERQITVPTLISESGRAIAS | not soluble
3 | MGSDKIHHHHHHMNNFNNEIKLILQQYLEKFEAHYERVLQDDQYIEALETLMDDYSEFILNPIYEQQFNAWRDVEEKAQLIKSLQYITAQCVKQVEVIRARRLLDGQASTTGYFDNIEHCIDEEFGQCSIASNDKLLLVGSGAYPMTLIQVAKETGASVIGIDIDPQAVDLGRRIVNVLAPNEDITITDQKVSELKDIKDVTHIIFSSTIPLKYSILEELYDLTNENVVVAMRFGDGIKAIFNYPSQETAEDKWQCVNKHMRPQQIFDIALYKKAAIKVGITDV | not soluble
4 | PLVCLADFKAHAQKQLSKTSWDFIEGEADDGITYSENIAAFKRIRLRPRYLRDMSKVDTRTTIQGQEISAPICISPTAFHSIAWPDGEKSTARAAQEANICYVISSYASYSLEDIVAAAPEGFRWFQLYMKSDWDFNKQMVQRAEALGFKALVITIDTPVLGNRRRDKRNQLNLEANILLKDLRALKEEKPTQSVPVSFPKASFCWNDLSLLQSITRLPIILKGILTKEDAELAMKHNVQGIVVSNHGGRQLDEVSASIDALREVVAAVKGKIEVYMDGGVRTGTDVLKALALGARCIFLGRPILWGLACKGEDGVKEVLDILTAELHRCMTLSGCQSVAEISPDLIQFSRL | soluble
5 | MGSDKIHHHHHHMNEAAKQLYITQPSLSNAVRNLETEMGIQIFIRNPKGITLTKDGMEFLSYARQILEQTALLEERYKGDNTSRELFSVSSQHYAFVVNAFVALFNGTDMTQYELFLRETRTWEIIDDVKNFRSEIGVLFLNSYNRDVLTKLFDDNSLIATTLFTTTPHIFVSKSNPLANRKKLNMKDLEDYPYLSYDQGLHNSFYFSEEMMSQIPHPKSIVVSDRATLFNLMIGLDGYTVATGILNSKLNGDEIVAIPLDVDDVIDIVYIRHDKANLSKMGQKFIDYLLEEVSFNHKNKQS | not soluble
6 | MIKESIILKNLEVPTGNICVIKGDKGKLEFLSLGDYGKEVNVKADFLGITRDLEGVPNGKVQPLTKKWVVTMSTQYGCDSGCKFCDVPKVGKGVNVTYNDLKTQLEQALNLHPEIDRTERLNIHYARMGEPSWNNDVLDFTRNLKNIVKPYIGESLIHPVFTTMCPNKNKFLAHRINEWVDIKNNLFQGDAGLQLSINSTNENQRRDMFRGNALTLNEISSIGNDLPMPKGRKYCLNFALADEYEVDAKVLKKLFDPSKFMVKITPLHKTVSSIENDIKTTKGYVSYTPYKDIENDLKKMGFDVLVFVPSYDEDLGRITCGNVILSGSLPKCKYKINLEHHHHHH | not soluble
7 | MRKQWLGICIAAGMLAACTSDDGQQQTVSVPQPAVCNGPIVEISGADPRFEPLNATANQDYQRDGKSYKIVQDPSRFIQAGLAAIYDAEPGSNLTASGEAFDPTQLTAAHPTLPIPSYARITNLANGRMIVVRINDRGPYGNDRVISLSRAAADRLNTSNNTKVRIDPIIVAQDGSLSGPGMACTTVAKQTYALPAPPDLSGGAGTSSVSGPQGDILPVSNSTLKSEDPTGAPVTSSGFLGAPTTLAPGVLEGSEPTPAPQPVVTAPSTTPATSPAMVTPQAASQSASGNFMVQVGAVSDQARAQQYQQQLGQKFGVPGRVTQNGAVWRIQLGPFANKAEASTLQQRLQTEAQLQSFITTAQ | not soluble
8 | MGSDKIHHHHHHLKNELAVIDIGSNSIRYVIFHPIDSGRYIEKINVKVVARLSAHIDAEGALDSVGIRLLCETLQRFHEIGITHHVEETICVATAAIRNASNRQDIVHAVEQETPFTMRVLSDEQEAYYGYFAIINSTFLTDGYSVDIGGGSMEVTLIENREMIAYHSFPFGAVTLTRQFLSGETMTSGEQKKLIKFLREQFDEIPWLKNKKLPLIGVGGSARNFVRIHQSTLDYPLHGIHQYQVRSKELGKLIDELEDKAPKQLMKVEGLSKDRVDIFLPALIAIHELALHIEAEQFVMSNYGLREGLVYEYDLHEQEQRRIENVREESLYQLESDYKVNRDRMNYLGTIAKSIYRQLVTLDIIPNRAADLRLLDSASRLLYCGQYINPDTRSNQTFYLLTNTDLKGMTHKDRLALALVSSYSSSKRIQQLLKPFKDWFTDKSIERFDLLGSILKLTEALDVTERRAVDSLEIALEKDKKDLRIILDTGDHDYGFEVEKAEKQKKHLERIIDRSIQFDNKGGGLT | not soluble
9 | MGSDKIHHHHHHMLHQLTVLFKDHLSTDPTVYCTDKYTVYQLADGLRFGIENTILTPRELDLLNLLVERVVTSESDQIVTWRRRLEQPSSEEAHPFRMIHFLFEQLDVRTGEDLQQLLTSFFHPSSWIIPLTSNRLVVIEREDSVSENDLHDFFTALQSDFLMDGKVLIGQQRQSGDLAAQFRLEQAALRELPLLHIERFLPALMRLTLLSNEVRDDLIERFITPLERESRETIDAFCRANLNVSLTAKHLFLHRNSLQYRLDRLTEQTEIDIRSFEGAMFLYTLLLVA | not soluble
10 | MSLNPFQKIKSAVNKRQRFFINRTLQRKLTNQGMTVISANCVGAFILHDLHQPFNSPFVNLYLSPQDFLRYLQNIDFYLTQPLTFVQTEKSYPVGKLADLEIHFMHYHSEQEANEKWQLRTSRMKLDNLFIMMTDRDGVTEKDIQLFDQLPFKNKVIFTHKPYPAFKSAYYIKGFEKQNQVGDIFEFSGWNGKKYYDQFDYVKWFNHAEGHHHHHH | soluble
11 | VGSFYGQYLSIRKTEALLRNELNALTPATVMELADKLPEKSSSLVISYIRQVLQAHESPAQIQRLLANFEIAADKDLAISKTLTKLGP | not soluble
12 | SLHELSLCQSAVEIIQRQAEQHDVKRVTAVWLEIGALSCVEESAVRFSFEIVCHGTVAQGCDLHIVYKPAQAWCWDCSQVVEVHQHDAQCPLCHGERLRVDTGDSLIVKSIEVE | soluble
13 | MSLTIYHPAELPQRQAEKSPNKTIIKYYDRESKQWRNISWSKFAAGVMNAAKALAEIGLESGERIGIYSPNMVHCLYTELGAFAMRGVVVPLYATSSPEQLRFIVEDSSMETLFVGEQFQYNNAYRVQKEYGTLKRIVVFDERVVLNPEDKTSKYFSEFVRLGDSMPNETKVKVSSREAIPSDPALIIYTSGTSGRSKGVLLLHSNLMYQMKVHSEHIPVYGPGELSIAFLPMSHIFEKAWTLFCLTTGTRIAILRDPKKVLEALPQIRPSLMCNVPRFWEKVYQGVNEKMASSPRILKGVYRRAMAVGQRYRLDYWNEGKRAPLLLSMQYAFYNCTIFTLLKRVLGLQRGRYFPTAGAPLSDEINIFLQSVNIPIIVGYGLSETTATVSFYPQRGFKIGSMGKVMPGLDARIDPDNNEILVKGESVMSEYYNLPEETAGAFTPDGYFRTGDAGRMDPDGTLYFLERIKDLYKTANGKYIAPQMIEGMLTKDPIIEQIAVIGDRFKYVSALVYPNWELVRQAAIKRGLEQAREGHHHHHH | not soluble
14 | MNKKELIDILLYDVALEHSAIIQYLYNVFLIGDPEITNEIESIARQEMRHLKWFAQKVVELGGKVTLNRIEEAIKVGQSWEEMLKNDVDAEEEAIKIYSQQLEIVKDDSVKKLLDRVINDEMRHRDEFSEMLEELKNKKIEEAKQEAGIDSEIFNILNKLLQKEYRLILDYLYHFFHSKTWQEKDTSLDIAIESMFHMGELGEKIGELGGYPDLSLPKAKHFKGFTPEEVIEDIKEEETASRMYEENAKKVTREDLVKLFKWFEKQEDYHAQRLKELFRKMNRFTIGGLGEES | not soluble
15 | MSNKGGGQRSGEIGVDELWTVYKSFIRETGLARQHLDSFNRLVTQEIQKIIDSIREVRPQWRIYAGRRRYRRGRFEEHEIHLPDVKIVFGKARFKEPMAREVIESFDRRVTPFECRVRGITYSAPLMVEMTIVQDNMIEKTREVKIADFPVMVKSVLDPLSKYDEETVIEMGEDPGDPGGYFIINGSEKVIVAQEDLAVNRIIVNKSTAATARITHTAKAVSTVLGLRRQAIVDRMSDGTLEASLSRLRYRIPLVVLLRALGLEKDMEIMLAVSADPDVQREMLPSLEKGRALAPTKEDALKYLGNRIAPGQPLDVRIRRAEEFLDTQLLPHLGNRPEDRIKKAYFLAEMANRVLQLYLGKRGEDDKDFLGNKRLRLAGDLIAELFRESLEALANTMAQKLEEQLAERRQIRLDFLVRPTIISDRLKGAIATGNWGQDRTGISQQLDRTNWISLLSHLRRVISPLSRGQAHFEARDLHGSHWGRYCPFETPEGINCGLVKNLALSAYISVGVDESVVEEILVKDLGVAPLERILEEAKQAGEPPEIMLKGTKVFINGRPLGYHPNGAELARKIRELRRSDKLEVERPWEVSVYHLREGEIDELYVNTDSGRLMRPVVVVENGEPKLTREHVEKLSRGEITFWDLVKQGVVEMLDPEEEQNALIAELPWEVTKEHTHMELWVPAIVGVAAATIGYLEHNQSPRNTYQAAMAKQALGVYALNYRIRLDSHSYLLQYPQVPIVQTRMLDIMGYNERPAGQNMVVAIMSYTGYNIEDALIFNKGSIDMGLARAYFFRVYTGIENEYPGGERDRITLPKPDEVYDYRGAAAYAKLEADGIVAPETEVEGGEILIGRVSPPRFLGEGRVISMATVRRRDTSIPMRLGEKGVVDMVVISTTVERNKLVKVRVRNLRIPEIGDKFASRHGQKGVIGMIFPRYDMPYTEEGIEPDVILNPHAIPSRMTVGQLLEEIAGKLGAIKGRFVDATPFFKEDIDGLRIELLKEGYDPNAREVMYDGRTGQIIEAPITIGVAYYQRLYHMVADKIHARATGRVHLLTRQPTEGKARQGGLRFGEMERDCLVGHGASMLLRDRMLDNSDAYVMYVCNTCGNIAWFNRRKKVLECPIHGEEGDIRPVKVPYAFKLLLQEITSMMIKPELKVADKISVIRKVVGDYT | soluble
16 | MPQYKLYYFNLRGWAEPARQLFKLAHVEFEDVRIENGTPEWGALKPKTPFGQLPFLSVDGFEIPQSAAILRYLAKKFGYAGKTSEEEAWVDAIVDQFKDFVTPLRQLIMAQRSGNAEEIERIQKEVFAPARDTFFKILNGILEKSKSGFLVGDGVTWADLVIADILTTMEMLGVFDKHGEEQKLAALREKVNEIPEIKEHNSSRPDSVV | not soluble
17 | MQVHVIRRENRALYAGLLEKYFRIRHQIYVVERGWKELDRPDGREIDQFDTEDAVYLLGVDNDDIVAGMRMVPTTSPTLLSDVFPQLALAGPVRRPDAYELSRIFVVPRKRGEHGGPRAEAVIQAAAMEYGLSIGLSAFTIVLETWWLPRLVDQGWKAKPLGLPQDINGFSTTAVIVDVDDDAWVGICNRRSVPGPTLEWRGLEAIRRHSLPEFQVIS | not soluble
18 | GPGSVPPKKPTEVPKLVRINTNEKGITNVQLARAPVNSMSLELFQELNQWMLWLGCNEETKAVIISSAIPTVFSAGLEFSEVHNPKPDRIAVFWQSFQEMWRILDTFPKPIIAAITGNSPAAGCIIAMGCDYRVMARGPKGNTNNNRLYRIGLNETKLGLVPPPWTVSAYAYLLGSRQAEEMLQLGETPVADDARNLGLIDEVAADEERAIEVAYQQAERFLSVPQEARRVSRDMARCEYLRLLATEDDRNYDTEFFTQYMLRPEVQKNLESYLERLKSRSRK | not soluble
